Where a chain is given by its changes, count along the chain named. Like-named read-outs stand apart in the source and are kept apart here. A value given as a limit tells only on which side of the number the result lay.

Assay [1] has as its target T1, SARS-CoV-2 RBD (Biotinylated SARS-CoV-2 RBD, Acrobio 시스템) (SARS-CoV-2, UniProt P0DTC2 319-537).
The target in assay [2] is SARS-CoV-1 RBD (SARS-CoV-1, UniProt P59594 306-527). The assay can be described thus: binding measurement of Fig. 20; method not given.
Assay [3] has as its target T1, SARS-CoV-2 RBD (Biotinylated SARS-CoV-2 …). The assay can be described thus: BLI; IgG1 made in CHO cells. In general terms: In BLI a coated tip is dipped into the sample, and binding shifts an interference pattern.

B1: D27 항체 (designed full-length antibody D27) (antibody, V domains shown)
VH: QVQLQQSGAEVKKPGSSVKVSCKASGGTFGNWSISWVRQAPGQGLEWMGGIDPSRGEATYAQKFQGRVTITTDESTSTAYMELSSLRSEDTAVYYCARETEQGGMDVWGQGTTVTVSS
VL: SYELTQPPSVSVAPGKTARITCGGNNIGRKSVHWYQQKPGQAPVLVVYDDSDRPSGIPERFSGSNSGNTATLTISRVEAGDEADYYCQVYDLFSDYVFGTGTKVEIK
The term Kd denotes the concentration at which binding is half-saturated. Read a low Kd as higher affinity. In the case of B1, the affinity in assay [1], expressed as Kd, was 175 nM.

B2: D27LEY (IgG1 형태) (antibody, V domains shown)
VH: QVQLQQSGAEVKKPGSSVKVSCKASGGTFGNWSISWVRQAPGQGLEWMGGIAPGRGEATYAQKFQGRVTITTDESTSTAYMELSSLRSEDTAVYYCARETWYTSGGMDVWGQGTTVTVSS
VL: SYELTQPPSVSVAPGKTARITCGGNNIGRKSVHWYQQKPGQAPVLVVYDDSDRPSGIPERFSGSNSGNTATLTISRVEAGDEADYYCQVYDLWSSDYVFGTGTKVTVL
The molecule B2 showed a Kd in assay [2] of under 0.001 nM.

B3: D27LE (IgG1 형태) (antibody, V domains shown)
VH: B2 VH with A52D, G54S
VL: B2 VL
In turn, B3 came in with a Kd in assay [3] of 7.1 nM.
